The text below walks through data of patent publication US20160200831A1 (Sanofi, published 2016).

The assay deals with T1, cynomolgus PAI-1 (cynomolgus monkey (Macaca fascicularis), UniProt P05121 24-402 (human entry)).
T1 construct: produced in-house in E. coli (non-glycosylated); active cyno PAI-1 in the assays; also called cyno PAI-1; cPAI-1
As to the kind of experiment: Biacore. Background: Surface plasmon resonance follows binding to a sensor surface in real time, without labels.

T1 sequence (P05121 other isoform, or with tags, fused parts or gaps limits assumed): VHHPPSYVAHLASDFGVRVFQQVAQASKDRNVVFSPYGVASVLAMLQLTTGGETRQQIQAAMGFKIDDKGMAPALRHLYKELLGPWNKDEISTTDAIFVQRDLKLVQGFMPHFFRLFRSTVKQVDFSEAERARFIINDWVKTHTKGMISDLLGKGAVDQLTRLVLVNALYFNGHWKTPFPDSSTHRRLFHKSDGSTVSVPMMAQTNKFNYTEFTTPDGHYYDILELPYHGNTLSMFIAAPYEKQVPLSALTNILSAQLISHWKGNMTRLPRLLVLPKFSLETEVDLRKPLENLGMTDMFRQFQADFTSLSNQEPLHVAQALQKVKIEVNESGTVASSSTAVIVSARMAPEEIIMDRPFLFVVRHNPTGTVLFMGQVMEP

B1: A44-hv1 (antibody, V domains shown)
VH: EMTLKESGPTLVKPTQTLSLTCSVTGDSMTNGYWNWIRKFPGKALEYMGYITYSGSTYYNPSLKGRISITRNTSKNQYYLTLSSVTTVDTATYYCARWHYGSPYYFDYWGQGTTLTVSS
VL: DIKMTQSPSSLSASVGDRVTITCKASQDINSYLSWLQQKPGKSPKTLIYRANRSVDGVPSRFSGSGSGQDYSLTISSLQPEDLGIYYCLQYDEFPPTFGGGTKLEIK
notes: humanized A44, HEK293; also called LC1a x HC1a; variant 1
For the molecule B1, the binding result was “binds”.

B2: A44-hv2 (antibody, V domains shown)
VH: EMQLQESGPGLVKPSETLSLTCSVTGDSMTNGYWNWIRKFPGKGLEYMGYITYSGSTYYNPSLKGRISITRNTSKNQYYLKLSSVTTADTATYYCARWHYGSPYYFDYWGQGTTLTVSS
VL: DIKMTQSPSSVSVSPGQTVTITCKASQDINSYLSWLQQKPGQSPKTLIYRANRSVDGVPSRFSGSGSGQDYSLTISSLQAMDEGIYYCLQYDEFPPTFGGGTKLTIK
notes: humanized A44, HEK293; constant regions as for A44-hv1; also called LC1b x HC1b; variant 2
Consider B2, for which the binding result is recorded as “binds”.

B3: A44-hv9 (antibody, V domains shown)
VH: QMQLQESGPGLVKPSETLSLTCTVSGDSMTNGYWNWIRQPPGKGLEYMGYITYSGSTYYNPSLKSRITISRDTSKNQYSLKLSSVTAADTAVYYCARWHYGSPYYFDYWGQGTLVTVSS
VL: DIQMTQSPSSLSASVGDRVTITCKASQDINSYLSWLQQKPGKAPKTLIYRANRSVDGVPSRFSGSGSGQDYTFTISSLQPEDIATYYCLQYDEFPPTFGGGTKVEIK
notes: humanized A44, HEK293; constant regions as for A44-hv1; also called LC5b x HC5b; variant 9
Regarding B3, the binding result is “binds”.

B4: A44-hv5 (antibody, V domains shown)
VH: EMTLKESGPTLVKPTQTLSLTCSVTGDSMTQGYWNWIRKFPGKALEYMGYITYSGSTYYNPSLKGRISITRNTSKNQYYLTLSSVTTVDTATYYCARWHYGSPYYFDYWGQGTTLTVSS
VL: DIKMTQSPSSLSASVGDRVTITCKASQDINSYLSWLQQKPGKSPKTLIYRAQRSVEGVPSRFSGSGSGQDYSLTISSLQPEDLGIYYCLQYDEFPPTFGGGTKLEIK
notes: humanized A44, HEK293; constant regions as for A44-hv1; also called LC2 x HC2b; variant 5
In the case of B4, the binding result is reported as “binds”.

B5: A44-hv7 (antibody, V domains shown)
VH: QMTLKESGPTLVKPTQTLSLTCSVSGESMTQGYWNWIRQFPGKALEYMGYITYSGSTYYNPSLKGRITITRQTSKNQYYLTLSSVTTVETATYYCARWHYGSPYYFDYWGQGTTLTVSS
VL: DIKMTQSPSSLSASVGDRVTITCKASQDINSYLSWLQQKPGKSPKTLIYRAQRSVEGVPSRFSGSGSGQDYSLTISSLQPEDLATYYCLQYDEFPPTFGGGTKLEIK
notes: humanized A44, HEK293; constant regions as for A44-hv1; also called LC4 x HC4; variant 7
With B5, the binding result is on record as “binds”.

B6: A44-hv6 (antibody, V domains shown)
VH: QMTLKESGPTLVKPTQTLSLTCSVSGDSMTNGYWNWIRQFPGKALEYMGYITYSGSTYYNPSLKGRITITRDTSKNQYYLTLSSVTTVDTATYYCARWHYGSPYYFDYWGQGTTLTVSS
VL: DIKMTQSPSSLSASVGDRVTITCKASQDINSYLSWLQQKPGKSPKTLIYRANRSVDGVPSRFSGSGSGQDYSLTISSLQPEDLATYYCLQYDEFPPTFGGGTKLEIK
notes: humanized A44, HEK293; constant regions as for A44-hv1; also called LC3 x HC3; variant 6
For the molecule B6, the binding result is on record as “binds”.

B7: A44-hv4 (antibody, V domains shown)
VH: EMTLKESGPTLVKPTQTLSLTCSVTGDSMTQGYWNWIRKFPGKALEYMGYITYSGSTYYNPSLKGRISITRNTSKNQYYLTLSSVTTVDTATYYCARWHYGSPYYFDYWGQGTTLTVSS
VL: DIKMTQSPSSLSASVGDRVTITCKASQDINSYLSWLQQKPGKSPKTLIYRANRSVDGVPSRFSGSGSGQDYSLTISSLQPEDLGIYYCLQYDEFPPTFGGGTKLEIK
notes: humanized A44, HEK293; constant regions as for A44-hv1; also called LC1a x HC2b; variant 4
For B7, the binding result is “binds”.
